We go through three molecules from US20230181753A1 (INSERM INSTITUT NATIONAL DE LA SANTE ET DE LA RECHERCHE …, published 2023).

Substrate in experiment [1]: ICOS (Inducible T cell costimulator) (UniProt Q9Y6W8)
The experiment can be described thus: flow cytometry, staining of HUT78 cells. In general terms: A flow cytometer gives signals particle by particle.

Substrate in experiment [2]: ICOS (Inducible T cell costimulator) (UniProt Q9Y6W8)
Description: flow cytometry, staining of MJ cells.

Substrate in experiment [3]: ICOS (Inducible T cell costimulator) (UniProt Q9Y6W8)
Description: flow cytometry, staining of MyLa cells.

The target in experiment [4] is T1, ICOS (Inducible T cell costimulator) (UniProt Q9Y6W8 21-199, limits assumed).
T1 sequence (looked up): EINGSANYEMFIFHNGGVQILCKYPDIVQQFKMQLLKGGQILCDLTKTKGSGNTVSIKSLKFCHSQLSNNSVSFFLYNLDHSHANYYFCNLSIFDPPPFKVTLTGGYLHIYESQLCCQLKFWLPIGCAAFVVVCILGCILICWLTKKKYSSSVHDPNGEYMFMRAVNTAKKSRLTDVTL
Description: cell-based or functional assay.

B1: 314.8 mAb (antibody, V domains shown)
VH: QVQLQQPGTELMKPGASVKLSCKASGYTFTTYWMHWVKQRPGQGLEWIGEIDPSDSYVNYNQNFKGKATLTVDKSSSTAYIQLSSLTSEDSAVYFCARSPDYYGTSLAWFDYWGQGTLVTVST
VL: DIVMTQAAPSVPVTPGESVSISCRSSKSPLHSNGNIYLYWFLQRPGQSPQLLIYRMSNLASGVPDRFSGSGSGTTFTLKISRVEAEDVGVYYCMQHLEYPYTFGGGTKLEIK
As for B1, the MFI ratio in experiment [1] turned out to be 4.5; in experiment [2], 96; in experiment [3], 144.

B2: anti-ICOS-MMAE ADC (anti-ICOS 314.8-MMAE) (antibody, V domains shown)
VH: B1 VH
VL: B1 VL
modifications: coupled to MMAE; site and linker not stated
For the molecule B2, in experiment [4], the “IC50, cell viability (alamarBlue), Jurkat-ICOS cells” value amounted to 6.7 ng/mL; the “IC50, cell viability (alamarBlue), MJ cells” value was 36.2 ng/mL; the “IC50, cell viability (alamarBlue), MyLa cells” value was found to be 8.2 ng/mL.

B3: anti-ICOS-PBD ADC (antibody, V domains shown)
VH: B1 VH
VL: B1 VL
modifications: coupled to pyrrolobenzodiazepine (PBD); site and linker not stated
For the molecule B3, in experiment [4], the “IC50, cell viability (alamarBlue), HUT78 cells” value is 9 ng/mL; the “IC50, cell viability (alamarBlue), Jurkat-ICOS cells” value turned out to be 0.7 ng/mL; the “IC50, cell viability (alamarBlue), MJ cells” value was found to be 0.8 ng/mL; the “IC50, cell viability (alamarBlue), MyLa cells” value came to 1.2 ng/mL.
